We go through 8 molecules from patent US20260055187A1 (SANTA ANA BIO, published 2026).

Sequences and labels used below:
T1: ICOS extracellular domain (PD-1 family member) (UniProt Q9Y6W8 21-140, limits assumed)
T1 construct: extracellular domain; not shown: His tag
T1 sequence (looked up): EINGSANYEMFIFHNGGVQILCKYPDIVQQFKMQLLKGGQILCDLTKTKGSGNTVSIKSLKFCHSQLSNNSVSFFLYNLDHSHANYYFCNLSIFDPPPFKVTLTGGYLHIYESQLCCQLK

T2: CTLA-4 extracellular domain (PD-1 family member) (UniProt P16410 36-161, limits assumed)
T2 construct: extracellular domain; not shown: His tag
T2 sequence (looked up): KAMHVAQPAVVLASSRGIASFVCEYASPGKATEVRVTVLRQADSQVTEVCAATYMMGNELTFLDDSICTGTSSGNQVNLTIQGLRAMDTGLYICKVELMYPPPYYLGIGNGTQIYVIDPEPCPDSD

B1: PD-1 antibody 1-28 (antibody, V domains shown)
VH: EVQLVQSGAEVKKPGASVKVSCKASGYRFTSYGISWVRQAPGQGLEWMGWISAYNGNTNYAQKLQGRVTMTTDTSTNTAYMELRSLRSDDTAVYYCARDADYSSGSGYWGQGTLVTVSS
VL: SYELTQPPSVSVSPGQTARITCSGDALPKQYAYWYQQKPGQAPVMVIYKDTERPSGIPERFSGSSSGTKVTLTISGVQAEDEADYYCQSADNSITYRVFGGGTKVTVL
notes: detection used an anti-human IgG secondary antibody
B2: PD-1 antibody 2.3A9 (antibody, V domains shown)
VH: QVQLQQSDAELVKPGTSVKISCKASGYTFTDHAIHWLKQEPDQGLEWIGYISPGYGDIEYNEKFKGKATLTADKSSSTAYMQLSSLTSEDSAVYFCKVTTGYWGQGTTLTVS
VL: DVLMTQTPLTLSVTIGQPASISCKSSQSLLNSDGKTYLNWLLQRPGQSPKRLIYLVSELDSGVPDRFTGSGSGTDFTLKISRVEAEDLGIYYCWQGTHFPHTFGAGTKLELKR
notes: detection used an anti-human IgG secondary antibody; also called Murine 2.3A9
B3: PD-1 antibody 1-17 (antibody, V domains shown)
VH: QVQLQESGPGVVKPSGTLSLTCAISGGSIGSGGSIRSTRWWSWVRQSPGKGLEWIGEIYHSGSTNYNPSLKSRVTISLDKSRNHFSLRLNSVTAADTAVYYCARQDYGDSGDWYFDLWGKGTMVTVSS
VL: NFMLTQPHSVSESPGKTVTISCTRSSGSIASNSVQWYQQRPGSSPTTVIYEDNQRPSGVPDRFSGSIDSSSNSASLTVSGLKTEDEADYYCQSSDSSAVVFGSGTKLTVL
notes: as for B1
B4: PD-1 antibody 3H4 (antibody, V domains shown)
VH: QIQLQQSGPELVKPGASVKISCKASGYTFTDYYINWVKQKPGQGLEWIGWIYPGSVNTKYNEKFRGKATLTVDTSSSTAYIQLSGLTSEDTAVYFCARYSNWFFDVWGAGTAVTVS
VL: DIVMTQSPSSLSASLGERVSLTCRASQEISGYLSWLQQKPDGTIKRLIYAASTLDSGVPKRFSGSRSGSDYSLSISSLESEDFADYYCLQYASYPYTFGGGTKLEIKR
notes: detection used an anti-human IgG secondary antibody; also called Murine 3H4
B5: PD-1 antibody 1B8 (antibody, V domains shown)
VH: EVQLVLSGGGFVQPGGSLKLSCAASGFTFSSYAMSWVRQNPERRLVWVATITGGGRNTYYPDSVKGRFTISRDNAKNTLYLQMSSLRSEDTAMYYCTRQGYDGYTWFAYWGQGTLVTVS
VL: not shown
notes: detection used an anti-human IgG secondary antibody; also called Murine 1B8
B6: PD-1 antibody 1-33 (antibody, V domains shown)
VH: QVQLVQSGAEVKKPGASVRVSCKASGYTLTSYYIHWVRQAPGQGLEWMGIINPRGATISYAQKFQGRVTMTRDTSTSTVYMELRNLKSEDTALYYCATAGIYGFDFDYWGRGTLVTVSS
VL: QSALTQPASVSGSPGQSITISCTGTSNDVGGYNYVSWYQHHPGKAPKLIIYDVTNRPSGVSDRFSGSKSGNTASLTISGLLAEDEGDYYCSSYTIVTNFEVLFGGGTKLTV
notes: as for B1
B7: PD-1 antibody 20B3.1 (antibody, V domains shown)
VH: EVKLVESGGGLVKPGGSLKLSCAASGFTFSSFGMSWVRQTPEKRLEWVATISGGGSNTYYPDSVKGRFTISRDNAKNNLYLQMTSLTSEDTALYYCTRIYDVAWFAYWGQGTLVTVS
VL: not shown
notes: detection used an anti-human IgG secondary antibody; also called Murine 20B3.1
B8: PD-1 antibody 1-35 (antibody, V domains shown)
VH: QVQLQESGPGLVKPSQTLSLTCTVSGGSISSGAYYWSWIRQHPGKGLEWIGYIYYNGNTYYNPSLRSLVTISVDASKNQFSLKLSSVTAADTAVYYCARASDYVWGGYRYMDAFDIWGRGTLITVSS
VL: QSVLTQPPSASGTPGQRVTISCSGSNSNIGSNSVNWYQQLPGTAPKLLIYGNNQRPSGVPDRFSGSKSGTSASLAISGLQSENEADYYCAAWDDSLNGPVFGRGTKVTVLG
notes: as for B1

T3 sequence (Q15116 25-167 limits assumed): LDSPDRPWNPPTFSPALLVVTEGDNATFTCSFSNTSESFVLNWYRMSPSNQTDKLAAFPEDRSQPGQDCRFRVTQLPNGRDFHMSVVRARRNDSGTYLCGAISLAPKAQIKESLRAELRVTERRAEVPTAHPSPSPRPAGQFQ

One assay addresses T3, PD-1 biotin (UniProt Q15116 25-167, limits assumed, biotin (site not stated)).
T3 construct: also called biotinylated PD-1
Put plainly: PD-1/PD-L1 blocking ELISA, interpolated on a standard curve of a PD-1 neutralizing antibody. The protocol: The ability of disclosed PD-1 antibodies to block the PD-1/PD-L1 interaction was assessed using an ELISA based assay.
Briefly, human PD-L1 was immobilized on 96 well ELISA plates. Plates were washed and blocked for 1.5 hours at 37° C. with block buffer. Plates were washed and test PD-1 antibodies, isotype controls, or a standard curve of PD-1 neutralizing antibody were added to the coated plate and incubated for 1 hour at 37° C. […] Following washing, streptavidin-HRP was added to the plate and the plate was incubated at 37° C. for 1 hour. After a final wash, antibody binding was detected colorimetrically by adding a subrate solution and incubating for 20 minutes protected from light before adding stop solution. Absorbance at 450 nm was measured on a plate reader (PerkinElmer). Data was analyzed using GraphPad Prism.
Percent blocking of tested PD-1 antibodies was determined by interpolating values obtained from each sample against the standard control curve (see FIG. 1) and summarized in Table 4.
Consider B1, for which the “Percent Blocking” value was determined as 87 percent.

Turning to B2, the “Percent Blocking” value was found to be 0 percent.

For the molecule B3, the “Percent Blocking” value stood at 7 percent.

In the case of B4, the “Percent Blocking” value turned out to be 46 percent.

Turning to B5, the “Percent Blocking” value is 90 percent.

In the case of B6, the “Percent Blocking” value was 68 percent.

On to B7, for which the “Percent Blocking” value came out at 94 percent.

With B8, the “Percent Blocking” value was found to be 58 percent.

A further assay deals with T4, CD28 extracellular domain (PD-1 family member) (UniProt P10747 19-152, limits assumed).
T4 construct: extracellular domain; not shown: His tag
T4 sequence (P10747 19-152 limits assumed): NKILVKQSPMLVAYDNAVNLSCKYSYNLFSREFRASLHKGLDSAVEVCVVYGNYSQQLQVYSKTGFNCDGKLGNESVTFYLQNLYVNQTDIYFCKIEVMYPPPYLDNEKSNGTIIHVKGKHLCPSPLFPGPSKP
Put plainly: ELISA, His-tagged extracellular domain on plate. The protocol:
(§1) His-tagged extracellular domains of human PD-1, cynomolgus PD-1, and PD-1 family members ICOS, CD28, and CTLA-4 extracellular domains were immobilized on 96 well ELISA plates. Plates were washed with PBST (phosphate buffered saline+0.05% Tween 20) and blocked for 1 hour with 1% BSA in PBS. Following washing with PBST, test PD-1 antibodies were added to the coated plate and incubated for 2 hours at room temperature. Plates were washed and incubated with HRP-conjugated goat anti-human IgG secondary antibody for 1 hour at room temperature. Following washing, antibody binding was detected colorimetrically by adding 3,3′,5,5′-tetramethylbenzidine (TMB) and incubated at room temperature for 10-20 minutes before adding 2.5N sulfuric acid stopping solution. Absorbance at 450 nm was measured on a plate reader (PerkinElmer). Data was analyzed using Graph-Pad Prism.
A general note: In an ELISA, binding on a coated surface is turned into a signal by an enzyme label.
Regarding B1, the binding result is “no binding”.

Turning to B2, the binding result is “no binding”.

Take B3: the binding result is reported as “no binding”.

On to B4, for which the binding result is listed as “no binding”.

B5: the binding result was “no binding”.

For the molecule B6, the binding result is “no binding”.

Regarding B7, the binding result was “no binding”.

Take B8: the binding result was “no binding”.

A further assay addresses T1, ICOS extracellular domain (PD-1 family …). Put plainly: ELISA, His-tagged extracellular domain on plate. As for the experimental part:
as §1
B1: the binding result is recorded as “no binding”.

Regarding B2, the binding result was “no binding”.

Turning to B3, the binding result was “no binding”.

As to B4, the binding result is given as “no binding”.

In the case of B5, the binding result is recorded as “no binding”.

As for B6, the binding result is given as “no binding”.

Consider B7, for which the binding result is given as “no binding”.

Regarding B8, the binding result was “no binding”.

A further assay deals with T2, CTLA-4 extracellular domain (PD-1 …). Briefly: ELISA, His-tagged extracellular domain on plate. As for the experimental part:
as §1
For B1, the binding result was “no binding”.

Turning to B2, the binding result was “no binding”.

With B3, the binding result was “no binding”.

With B4, the binding result is “no binding”.

For the molecule B5, the binding result is given as “no binding”.

B6: the binding result is reported as “no binding”.

As to B7, the binding result is listed as “no binding”.

Turning to B8, the binding result is on record as “no binding”.
